In PMC4868535, “A G-protein activation cascade from Arl13B to Arl3 and implications for ciliary targeting of lipidated proteins” (eLife, 2015):

Experiments:
CrArl13B 18-278 = target: T1, CrArl13B 18-278 (Chlamydomonas reinhardtii, UniProt A8INQ0); assay: nucleotide loading (HPLC) and GEF activity of the loaded protein; type: binding; settings: 5 mM MgCl2, pH 7.5, 20°C
T1 construct: gene ARL13; residues 18-278 (G-domain plus C-terminal helix), expressed in E. coli as GST fusion
T1 sequence (A8INQ0 18-278): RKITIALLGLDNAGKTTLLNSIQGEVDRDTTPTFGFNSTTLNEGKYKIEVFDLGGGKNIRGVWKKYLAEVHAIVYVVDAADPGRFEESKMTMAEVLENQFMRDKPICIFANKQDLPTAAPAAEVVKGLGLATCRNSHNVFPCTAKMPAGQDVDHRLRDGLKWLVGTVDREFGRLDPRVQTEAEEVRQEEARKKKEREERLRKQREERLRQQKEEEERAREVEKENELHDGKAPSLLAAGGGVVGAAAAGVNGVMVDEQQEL

[1] = target: T2, CrArl13B-CrArl3 complex (CrArl13B nucleotide site) (Chlamydomonas reinhardtii, UniProt A8INQ0); assay: X-ray crystal structure […] Å; type: binding; settings: Mg2+; nucleotide site of CrArl13B
T2 construct: gene ARL13; crystal complex, one in asymmetric unit; last 58 residues of CrArl13B not visible; from E. coli; with ADP-ribosylation factor-like protein 3
T2 sequence (A8INQ0 18-278): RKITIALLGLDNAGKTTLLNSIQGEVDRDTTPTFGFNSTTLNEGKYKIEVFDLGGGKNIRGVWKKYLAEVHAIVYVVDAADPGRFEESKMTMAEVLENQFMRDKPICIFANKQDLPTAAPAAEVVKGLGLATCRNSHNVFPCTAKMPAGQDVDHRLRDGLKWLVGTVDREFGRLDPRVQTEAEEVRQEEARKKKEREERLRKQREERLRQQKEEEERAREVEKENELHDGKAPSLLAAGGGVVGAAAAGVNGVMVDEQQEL
T2 sequence (A8ISN6 2-177 partner): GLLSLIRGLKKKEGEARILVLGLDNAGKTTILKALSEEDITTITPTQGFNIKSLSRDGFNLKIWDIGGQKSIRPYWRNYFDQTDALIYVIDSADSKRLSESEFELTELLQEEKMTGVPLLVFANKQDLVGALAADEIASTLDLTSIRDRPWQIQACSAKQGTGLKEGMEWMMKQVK

[2] = target: T3, CrArl13B-CrArl3 complex (CrArl3 nucleotide site) (Chlamydomonas reinhardtii, UniProt A8ISN6); assay: X-ray crystal structure […] Å; type: binding; settings: Mg2+; nucleotide site of CrArl3; post-nucleotide-exchange state
T3 construct: gene ARL3; crystal complex, one in asymmetric unit; last 58 residues of CrArl13B not visible; from E. coli; with ADP-ribosylation factor-like protein 13B
T3 sequence (A8ISN6 2-177 limits assumed): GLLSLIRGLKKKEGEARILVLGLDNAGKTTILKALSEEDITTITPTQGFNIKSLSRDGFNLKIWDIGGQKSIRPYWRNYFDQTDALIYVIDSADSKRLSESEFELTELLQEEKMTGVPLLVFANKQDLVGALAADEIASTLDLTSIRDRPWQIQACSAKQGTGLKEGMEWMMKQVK
T3 sequence (A8INQ0 18-278 partner): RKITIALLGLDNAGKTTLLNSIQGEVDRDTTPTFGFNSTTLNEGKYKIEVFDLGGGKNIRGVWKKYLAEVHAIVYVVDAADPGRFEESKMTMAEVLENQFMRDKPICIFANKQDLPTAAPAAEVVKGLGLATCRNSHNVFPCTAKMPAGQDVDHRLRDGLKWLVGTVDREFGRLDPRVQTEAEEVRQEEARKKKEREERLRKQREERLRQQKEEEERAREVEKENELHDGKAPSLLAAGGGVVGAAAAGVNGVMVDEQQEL

[3] = target: CrArl3 (Chlamydomonas reinhardtii)
[4] = target: CrArl3 D103R (Chlamydomonas reinhardtii)
[5] = target: CrArl3 D146R (Chlamydomonas reinhardtii)
[6] = target: CrArl3 (Chlamydomonas reinhardtii); remark: listed apart in the source
[7] = target: CrArl3 (Chlamydomonas reinhardtii); remark: listed apart in the source

Nc1nc2c(ncn2[C@@H]2O[C@H](COP(=O)(O)OP(=O)(O)O)[C@@H](O)[C@H]2O)c(=O)[nH]1 [GDP]
nucleotide loading (HPLC) and GEF activity of the loaded protein (CrArl13B 18-278; GDP-bound state compared by GEF activity on CrArl3·mantGDP): CrArl13B preloaded with GDP, GTP, or GppNHp was used to analyze the exchange activity

Nc1nc2c(ncn2[C@@H]2O[C@H](COP(=O)(O)OP(=O)(O)OP(=O)(O)O)[C@@H](O)[C@H]2O)c(=O)[nH]1 [GTP]
nucleotide loading (HPLC) and GEF activity of the loaded protein (CrArl13B 18-278; GTP-bound state compared by GEF activity on CrArl3·mantGDP): CrArl13B preloaded with GDP, GTP, or GppNHp was used to analyze the exchange activity

Nc1nc2c(ncn2[C@@H]2O[C@H](COP(=O)(O)OP(=O)(O)NP(=O)(O)O)[C@@H](O)[C@H]2O)c(=O)[nH]1 [GppNHp]
X-ray crystal structure 2.5 Å [1]: GppNHp was clearly visible in both active sites | X-ray crystal structure 2.5 Å [2]: GppNHp was clearly visible in both active sites

B1: CrArl13B △213 (18–212) (domain or fragment)
chain: RKITIALLGLDNAGKTTLLNSIQGEVDRDTTPTFGFNSTTLNEGKYKIEVFDLGGGKNIRGVWKKYLAEVHAIVYVVDAADPGRFEESKMTMAEVLENQFMRDKPICIFANKQDLPTAAPAAEVVKGLGLATCRNSHNVFPCTAKMPAGQDVDHRLRDGLKWLVGTVDREFGRLDPRVQTEAEEVRQEEARKKKE
Kobs of nucleotide release from CrArl3 wt with 5 µM CrArl13B △213 (GEF assay, deletion constructs) [3]: 0.0001 s⁻¹

B2: CrArl13B △233 (18–232) (domain or fragment)
chain: RKITIALLGLDNAGKTTLLNSIQGEVDRDTTPTFGFNSTTLNEGKYKIEVFDLGGGKNIRGVWKKYLAEVHAIVYVVDAADPGRFEESKMTMAEVLENQFMRDKPICIFANKQDLPTAAPAAEVVKGLGLATCRNSHNVFPCTAKMPAGQDVDHRLRDGLKWLVGTVDREFGRLDPRVQTEAEEVRQEEARKKKEREERLRKQREERLRQQKEEE
Kobs of nucleotide release from CrArl3 wt with 5 µM CrArl13B △233 (GEF assay, deletion constructs) [3]: 0.005 s⁻¹

B3: CrArl13B^18-–278 (domain or fragment)
chain: RKITIALLGLDNAGKTTLLNSIQGEVDRDTTPTFGFNSTTLNEGKYKIEVFDLGGGKNIRGVWKKYLAEVHAIVYVVDAADPGRFEESKMTMAEVLENQFMRDKPICIFANKQDLPTAAPAAEVVKGLGLATCRNSHNVFPCTAKMPAGQDVDHRLRDGLKWLVGTVDREFGRLDPRVQTEAEEVRQEEARKKKEREERLRKQREERLRQQKEEEERAREVEKENELHDGKAPSLLAAGGGVVGAAAAGVNGVMVDEQQEL
Kobs of nucleotide release from CrArl3 D103R·mantGppNHp with 5 µM CrArl13B wt (GEF assay) [4]: 0.00014 s⁻¹ | Kobs of nucleotide release from CrArl3 D146R·mantGppNHp with 5 µM CrArl13B wt (GEF assay) [5]: 0.00014 s⁻¹ | Kobs of nucleotide release from 500 nM CrArl3·mantGppNHp with 5 µM CrArl13B wt (GEF assay, switch interface mutants) [3]: 0.0091 s⁻¹ | Kobs of nucleotide release from CrArl3 wt with 5 µM CrArl13B 18-278 (GEF assay, deletion constructs) [3]: 0.0066 s⁻¹ | Kobs of nucleotide release from CrArl3 wt·mantGppNHp with 5 µM CrArl13B wt (GEF assay, charge reversal interface mutants) [3]: 0.0085 s⁻¹ | KM of the GEF reaction (kobs of mantGDP release from 500 nM CrArl3 against GEF concentration) for CrArl13B·GDP [6]: 155 µM | KM of the GEF reaction (kobs of mantGDP release from 500 nM CrArl3 against GEF concentration) for CrArl13B·GTP [6]: 1.1 µM | Kobs of mantGDP release from 500 nM CrArl3 with 5 µM CrArl13B·GDP (GEF assay) [7]: 0.0009 s⁻¹ | Kobs of mantGDP release from 500 nM CrArl3 with 5 µM CrArl13B·GTP (GEF assay) [7]: 0.006 s⁻¹ | Kobs of mantGDP release from 500 nM CrArl3 with 5 µM CrArl13B·GppNHp (GEF assay) [7]: 0.0078 s⁻¹

B4: CrArl13B H154W (18-278) (domain or fragment)
chain: RKITIALLGLDNAGKTTLLNSIQGEVDRDTTPTFGFNSTTLNEGKYKIEVFDLGGGKNIRGVWKKYLAEVHAIVYVVDAADPGRFEESKMTMAEVLENQFMRDKPICIFANKQDLPTAAPAAEVVKGLGLATCRNSWNVFPCTAKMPAGQDVDHRLRDGLKWLVGTVDREFGRLDPRVQTEAEEVRQEEARKKKEREERLRKQREERLRQQKEEEERAREVEKENELHDGKAPSLLAAGGGVVGAAAAGVNGVMVDEQQEL
Kobs of nucleotide release from CrArl3 wt·mantGppNHp with 5 µM CrArl13B H154W (GEF assay) [3]: 0.0088 s⁻¹

B5: CrArl13B^F53A (18-278) (domain or fragment)
chain: RKITIALLGLDNAGKTTLLNSIQGEVDRDTTPTFGANSTTLNEGKYKIEVFDLGGGKNIRGVWKKYLAEVHAIVYVVDAADPGRFEESKMTMAEVLENQFMRDKPICIFANKQDLPTAAPAAEVVKGLGLATCRNSHNVFPCTAKMPAGQDVDHRLRDGLKWLVGTVDREFGRLDPRVQTEAEEVRQEEARKKKEREERLRKQREERLRQQKEEEERAREVEKENELHDGKAPSLLAAGGGVVGAAAAGVNGVMVDEQQEL
Kobs of nucleotide release from 500 nM CrArl3·mantGppNHp with 5 µM CrArl13B F53A (GEF assay) [3]: 0.00042 s⁻¹

B6: CrArl13B F51A (18-278) (domain or fragment)
chain: RKITIALLGLDNAGKTTLLNSIQGEVDRDTTPTAGFNSTTLNEGKYKIEVFDLGGGKNIRGVWKKYLAEVHAIVYVVDAADPGRFEESKMTMAEVLENQFMRDKPICIFANKQDLPTAAPAAEVVKGLGLATCRNSHNVFPCTAKMPAGQDVDHRLRDGLKWLVGTVDREFGRLDPRVQTEAEEVRQEEARKKKEREERLRKQREERLRQQKEEEERAREVEKENELHDGKAPSLLAAGGGVVGAAAAGVNGVMVDEQQEL
Kobs of nucleotide release from 500 nM CrArl3·mantGppNHp with 5 µM CrArl13B F51A (GEF assay) [3]: 0.002 s⁻¹

B7: CrArl13B N75A (18-278) (domain or fragment)
chain: RKITIALLGLDNAGKTTLLNSIQGEVDRDTTPTFGFNSTTLNEGKYKIEVFDLGGGKAIRGVWKKYLAEVHAIVYVVDAADPGRFEESKMTMAEVLENQFMRDKPICIFANKQDLPTAAPAAEVVKGLGLATCRNSHNVFPCTAKMPAGQDVDHRLRDGLKWLVGTVDREFGRLDPRVQTEAEEVRQEEARKKKEREERLRKQREERLRQQKEEEERAREVEKENELHDGKAPSLLAAGGGVVGAAAAGVNGVMVDEQQEL
Kobs of nucleotide release from 500 nM CrArl3·mantGppNHp with 5 µM CrArl13B N75A (GEF assay) [3]: 0.0044 s⁻¹

B8: CrArl13B D46A (18-278) (domain or fragment)
chain: RKITIALLGLDNAGKTTLLNSIQGEVDRATTPTFGFNSTTLNEGKYKIEVFDLGGGKNIRGVWKKYLAEVHAIVYVVDAADPGRFEESKMTMAEVLENQFMRDKPICIFANKQDLPTAAPAAEVVKGLGLATCRNSHNVFPCTAKMPAGQDVDHRLRDGLKWLVGTVDREFGRLDPRVQTEAEEVRQEEARKKKEREERLRKQREERLRQQKEEEERAREVEKENELHDGKAPSLLAAGGGVVGAAAAGVNGVMVDEQQEL
Kobs of nucleotide release from 500 nM CrArl3·mantGppNHp with 5 µM CrArl13B D46A (GEF assay) [3]: 0.0041 s⁻¹

B9: CrArl13B Y83A (18-278) (domain or fragment)
chain: RKITIALLGLDNAGKTTLLNSIQGEVDRDTTPTFGFNSTTLNEGKYKIEVFDLGGGKNIRGVWKKALAEVHAIVYVVDAADPGRFEESKMTMAEVLENQFMRDKPICIFANKQDLPTAAPAAEVVKGLGLATCRNSHNVFPCTAKMPAGQDVDHRLRDGLKWLVGTVDREFGRLDPRVQTEAEEVRQEEARKKKEREERLRKQREERLRQQKEEEERAREVEKENELHDGKAPSLLAAGGGVVGAAAAGVNGVMVDEQQEL
Kobs of nucleotide release from 500 nM CrArl3·mantGppNHp with 5 µM CrArl13B Y83A (GEF assay) [3]: 0.0009 s⁻¹

B10: CrArl13B △220 (18–219) (domain or fragment)
chain: RKITIALLGLDNAGKTTLLNSIQGEVDRDTTPTFGFNSTTLNEGKYKIEVFDLGGGKNIRGVWKKYLAEVHAIVYVVDAADPGRFEESKMTMAEVLENQFMRDKPICIFANKQDLPTAAPAAEVVKGLGLATCRNSHNVFPCTAKMPAGQDVDHRLRDGLKWLVGTVDREFGRLDPRVQTEAEEVRQEEARKKKEREERLRK
Kobs of nucleotide release from CrArl3 wt with 5 µM CrArl13B △220 (GEF assay, deletion constructs) [3]: 0.0011 s⁻¹

B11: CrArl13B △203 (18–202) (domain or fragment)
chain: RKITIALLGLDNAGKTTLLNSIQGEVDRDTTPTFGFNSTTLNEGKYKIEVFDLGGGKNIRGVWKKYLAEVHAIVYVVDAADPGRFEESKMTMAEVLENQFMRDKPICIFANKQDLPTAAPAAEVVKGLGLATCRNSHNVFPCTAKMPAGQDVDHRLRDGLKWLVGTVDREFGRLDPRVQTEAEEV
Kobs of nucleotide release from CrArl3 wt with 5 µM CrArl13B △203 (GEF assay, deletion constructs) [3]: 0.0001 s⁻¹

B12: CrArl13B △243 (18–242) (domain or fragment)
chain: RKITIALLGLDNAGKTTLLNSIQGEVDRDTTPTFGFNSTTLNEGKYKIEVFDLGGGKNIRGVWKKYLAEVHAIVYVVDAADPGRFEESKMTMAEVLENQFMRDKPICIFANKQDLPTAAPAAEVVKGLGLATCRNSHNVFPCTAKMPAGQDVDHRLRDGLKWLVGTVDREFGRLDPRVQTEAEEVRQEEARKKKEREERLRKQREERLRQQKEEEERAREVEKEN
Kobs of nucleotide release from CrArl3 wt with 5 µM CrArl13B △243 (GEF assay, deletion constructs) [3]: 0.0045 s⁻¹
